T1: Lsb4, P32793
T1 sequence (P32793 402-468, looked up): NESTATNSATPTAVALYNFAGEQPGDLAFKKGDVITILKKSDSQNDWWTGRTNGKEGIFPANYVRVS

T2: Bzz1-2, P38822
T2 sequence (P38822 568-633, looked up): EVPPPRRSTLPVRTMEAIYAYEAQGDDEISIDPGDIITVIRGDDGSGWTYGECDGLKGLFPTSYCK

T3: Bud14, P27637
T3 sequence (P27637 247-328, looked up): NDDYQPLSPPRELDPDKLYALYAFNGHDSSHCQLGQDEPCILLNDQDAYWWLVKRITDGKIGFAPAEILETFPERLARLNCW

T4: Fus1, P11710
T4 sequence (P11710 432-512, looked up): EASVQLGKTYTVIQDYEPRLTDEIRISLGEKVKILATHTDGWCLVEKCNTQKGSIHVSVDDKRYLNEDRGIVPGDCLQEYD

T5: Hof1, Q05080
T5 sequence (Q05080 590-669, looked up): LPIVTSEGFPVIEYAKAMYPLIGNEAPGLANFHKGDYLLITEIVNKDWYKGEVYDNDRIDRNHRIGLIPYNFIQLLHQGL

T6: Lsb1, P53281
T6 sequence (P53281 45-122, looked up): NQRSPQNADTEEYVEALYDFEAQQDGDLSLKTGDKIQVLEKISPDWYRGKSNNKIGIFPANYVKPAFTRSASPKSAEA

T7: Cdc25, P04821
T7 sequence (P04821 50-136, looked up): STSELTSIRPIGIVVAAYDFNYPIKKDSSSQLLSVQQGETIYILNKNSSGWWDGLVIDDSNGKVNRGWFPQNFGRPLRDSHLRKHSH

T8: Lsb3, P43603
T8 sequence (P43603 385-451, looked up): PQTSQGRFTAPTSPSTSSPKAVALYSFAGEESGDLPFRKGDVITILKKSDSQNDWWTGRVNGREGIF

T9: Nbp2, Q12163
T9 sequence (Q12163 103-180, looked up): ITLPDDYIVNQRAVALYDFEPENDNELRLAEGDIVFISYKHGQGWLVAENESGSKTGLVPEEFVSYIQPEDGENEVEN

T10: Boi2, P39969
T10 sequence (P39969 32-116, looked up): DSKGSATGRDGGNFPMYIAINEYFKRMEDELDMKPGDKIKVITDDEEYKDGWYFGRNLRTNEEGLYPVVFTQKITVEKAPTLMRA

T11: Pex13, P80667
T11 sequence (P80667 295-386, looked up): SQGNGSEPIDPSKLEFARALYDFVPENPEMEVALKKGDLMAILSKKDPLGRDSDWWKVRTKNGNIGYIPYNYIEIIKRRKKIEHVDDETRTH

T12: Pin3, Q06449
T12 sequence (Q06449 53-122, looked up): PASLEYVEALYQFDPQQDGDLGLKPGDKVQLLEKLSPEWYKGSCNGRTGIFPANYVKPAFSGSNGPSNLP

T13: Myo5, Q04439
T13 sequence (Q04439 1072-1160, looked up): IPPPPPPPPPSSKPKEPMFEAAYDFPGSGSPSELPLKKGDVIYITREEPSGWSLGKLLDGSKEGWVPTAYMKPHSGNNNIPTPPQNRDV

T14: Bzz1-1, P38822
T14 sequence (P38822 478-572, looked up): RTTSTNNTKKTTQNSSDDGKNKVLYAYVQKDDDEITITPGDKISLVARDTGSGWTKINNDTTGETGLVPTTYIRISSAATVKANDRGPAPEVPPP

T15: Hse1, P38753
T15 sequence (P38753 208-285, looked up): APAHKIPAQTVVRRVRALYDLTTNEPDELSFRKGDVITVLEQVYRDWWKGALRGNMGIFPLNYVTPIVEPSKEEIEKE

T16: Abp1, P15891
T16 sequence (P15891 535-592, looked up): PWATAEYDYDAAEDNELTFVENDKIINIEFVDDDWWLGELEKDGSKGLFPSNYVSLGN

T17: Sla1-2, P32790
T17 sequence (P32790 60-140, looked up): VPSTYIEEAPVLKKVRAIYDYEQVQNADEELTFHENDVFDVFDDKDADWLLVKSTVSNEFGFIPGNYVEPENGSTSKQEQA

T18: Boi1, P38041
T18 sequence (P38041 1-86, looked up): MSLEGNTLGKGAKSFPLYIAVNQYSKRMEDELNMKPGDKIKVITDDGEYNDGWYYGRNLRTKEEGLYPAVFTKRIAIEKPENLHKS

T19: Cyk3, Q07533
T19 sequence (Q07533 1-83, looked up): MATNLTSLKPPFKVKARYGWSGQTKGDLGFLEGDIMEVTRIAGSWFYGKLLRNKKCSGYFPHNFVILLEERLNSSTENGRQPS

T20: Bbc1, P47068
T20 sequence (P47068 1-78, looked up): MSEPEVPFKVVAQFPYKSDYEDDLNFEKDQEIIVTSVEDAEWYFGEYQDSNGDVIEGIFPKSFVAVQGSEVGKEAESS

T21: Sla1-3, P32790
T21 sequence (P32790 344-424, looked up): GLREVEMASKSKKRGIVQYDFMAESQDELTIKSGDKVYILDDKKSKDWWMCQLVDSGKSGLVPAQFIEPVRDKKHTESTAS

B1: unnamed (peptide)
chain: TKHKAPPPPPPTAET
B2: unnamed (peptide)
chain: LYEAMPPTLPHRDWK
B3: unnamed (peptide)
chain: QPWTDQFEKLEKEVS

biological target: Rvs167, P39743; assay: SPOT array; details: median of control spots 2707
Sequence (P39743 419-482): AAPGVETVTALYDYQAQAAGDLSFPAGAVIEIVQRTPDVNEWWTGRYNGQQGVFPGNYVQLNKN

Binder | SPOT intensity
B1 | 0
B2 | 151
B3 | 0

biological target: GST; assay: SPOT array; details: median of control spots 978

Binder | SPOT intensity
B1 | 0
B2 | 0
B3 | 0

biological target: T1, Lsb4, P32793; assay: SPOT array; details: median of control spots 397

Binder | SPOT intensity
B1 | 0
B2 | 1
B3 | 0

biological target: T2, Bzz1-2, P38822; assay: SPOT array; details: median of control spots 4538

Binder | SPOT intensity
B1 | 190
B2 | 2
B3 | 1

biological target: T3, Bud14, P27637; assay: SPOT array; details: median of control spots 956

Binder | SPOT intensity
B1 | 0
B2 | 0
B3 | 2

biological target: Bem1-1, P29366; assay: SPOT array; details: median of control spots 4282
Sequence (P29366 55-141): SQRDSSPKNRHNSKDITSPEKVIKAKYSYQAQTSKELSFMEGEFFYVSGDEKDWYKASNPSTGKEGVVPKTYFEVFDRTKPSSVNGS

Binder | SPOT intensity
B1 | 3
B2 | 0
B3 | 0

biological target: T4, Fus1, P11710; assay: SPOT array; details: median of control spots 1200

Binder | SPOT intensity
B1 | 0
B2 | 0
B3 | 0

biological target: T5, Hof1, Q05080; assay: SPOT array; details: median of control spots 4086

Binder | SPOT intensity
B1 | 1
B2 | 3
B3 | 1

biological target: T6, Lsb1, P53281; assay: SPOT array; details: median of control spots 388

Binder | SPOT intensity
B1 | 0
B2 | 0
B3 | 0

biological target: T7, Cdc25, P04821; assay: SPOT array; details: median of control spots 969

Binder | SPOT intensity
B1 | 0
B2 | 0
B3 | 4

biological target: T8, Lsb3, P43603; assay: SPOT array; details: median of control spots 406

Binder | SPOT intensity
B1 | 1
B2 | 0
B3 | 0

biological target: T9, Nbp2, Q12163; assay: SPOT array; details: median of control spots 357

Binder | SPOT intensity
B1 | 0
B2 | 0
B3 | 0

biological target: Bem1-2, P29366; assay: SPOT array; details: median of control spots 4347
Sequence (P29366 139-227): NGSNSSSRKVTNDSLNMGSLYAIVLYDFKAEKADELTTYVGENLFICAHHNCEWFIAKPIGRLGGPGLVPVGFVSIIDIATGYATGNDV

Binder | SPOT intensity
B1 | 0
B2 | 1
B3 | 0

biological target: T10, Boi2, P39969; assay: SPOT array; details: median of control spots 1161

Binder | SPOT intensity
B1 | 1
B2 | 2
B3 | 0

biological target: T11, Pex13, P80667; assay: SPOT array; details: median of control spots 1341

Binder | SPOT intensity
B1 | 0
B2 | 59
B3 | 0

biological target: T12, Pin3, Q06449; assay: SPOT array; details: median of control spots 2171

Binder | SPOT intensity
B1 | 0
B2 | 19
B3 | 0

biological target: T13, Myo5, Q04439; assay: SPOT array; details: median of control spots 471

Binder | SPOT intensity
B1 | 1
B2 | 1
B3 | 0

biological target: T14, Bzz1-1, P38822; assay: SPOT array; details: median of control spots 4446

Binder | SPOT intensity
B1 | 762
B2 | 0
B3 | 5

biological target: T15, Hse1, P38753; assay: SPOT array; details: median of control spots 1727

Binder | SPOT intensity
B1 | 0
B2 | 2
B3 | 0

biological target: T16, Abp1, P15891; assay: SPOT array; details: median of control spots 935

Binder | SPOT intensity
B1 | 0
B2 | 0
B3 | 0

biological target: T17, Sla1-2, P32790; assay: SPOT array; details: median of control spots 712

Binder | SPOT intensity
B1 | 1
B2 | 1
B3 | 0

biological target: T18, Boi1, P38041; assay: SPOT array; details: median of control spots 1162

Binder | SPOT intensity
B1 | 0
B2 | 0
B3 | 0

biological target: Myo3, P36006; assay: SPOT array; details: median of control spots 468

Binder | SPOT intensity
B1 | 0
B2 | 0
B3 | 0

biological target: Sho1, P40073; assay: SPOT array; details: median of control spots 1148
Sequence (P40073 287-367): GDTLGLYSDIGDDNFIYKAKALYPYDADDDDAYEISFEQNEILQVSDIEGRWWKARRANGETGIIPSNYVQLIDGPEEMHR

Binder | SPOT intensity
B1 | 0
B2 | 0
B3 | 0

biological target: T19, Cyk3, Q07533; assay: SPOT array; details: median of control spots 1451

Binder | SPOT intensity
B1 | 0
B2 | 0
B3 | 0

biological target: T20, Bbc1, P47068; assay: SPOT array; details: median of control spots 796

Binder | SPOT intensity
B1 | 0
B2 | 0
B3 | 0

biological target: T21, Sla1-3, P32790; assay: SPOT array; details: median of control spots 5475

Binder | SPOT intensity
B1 | 0
B2 | 0
B3 | 0

— article PMC2756588
